Laboratory results taken from US20210340232A1, “MONOCLONAL ANTIBODIES AGAINST HUMAN DICKKOPF3 AND USES THEREOF” (Board of Regents, The University of Texas System, priority 2018, published 2021).

Experiments:
NF-κB = NF-κB luciferase reporter assay in Panc28; type: cell-based, human; details: parental Panc28 cells
Method: FIGS. 3A-F. NF-κB is activated in PSCs and PDAC cells by DKK3 and is necessary for DKK3-mediated stimulation of cell activity. (FIG. 3A) Phosphorylation of p65 and IκBα induced by DKK3 treatment (10 μg/ml) was determined by Western blotting. Relative protein loading was shown by using anti-β-actin antibody. (FIG. 3B) Time course of p65 activation by WB in HPSC and Panc1 cells. Cells were treated with recombinant DKK3 (10 μg/ml) for 0-24 h and change in band density relative to baseline were quantified. (FIG. 3C) DKK3 stimulates NFκB luciferase reporter in HPSC & PDAC cells, with mutant luc reporter (MT). NFκB activity induced by DKK3 was measured in Panc28 with phosphorylation-defective IκBαM by luciferase reporter (FIG. 3D) and Western blotting (FIG. 3E). For FIGS. 3C&D, in each set of three columns, the left is “PBS,” the middle is “DKK3,” and the right is “TNFα.” (FIG. 3F) Proliferation of Panc28 and Panc28/IκBαM was measured by MTT assay. *p<0.05, **p<0.01, ***p<0.001 and ****p<0.0001 vs. PBS control.
NF-κB activity. NF-κB activity was determined by using a luciferase reporter assay. […] Luciferase signal was detected by using D-luciferin firefly potassium salt (Caliper Life Sciences, Hopkinton, Mass.) and the IVIS® imaging system (Xenogen Corp., Alameda, Calif.). […]

CD3+ T cells = test: T cell division assay (CFSE); type: cell-based, human; details: stimulated CD3+ T cells, DKK3 5-10 μg/mL
Method: FIGS. 6A-F. DKK3 blockade is associated with increased tumor immune infiltrates and improves response to checkpoint inhibitor therapy. (FIG. 6A) T cells were stimulated, treated with DKK3 (5-10 μg/mL) and proliferation was measured by CFSE assay. In a syngeneic orthotopic model with luciferase-labeled KPC cells, tumors were examined for CD3 and CD8 expression by IHC (FIG. 6B) and additional markers of T cell activity were measured by quantitative PCR (FIG. 6C). Mice in this model were treated with either control IgG, DKK3 mAb JM6-6-1, αCTLA4 or the combination JM6-6-1+αCTLA4 and tumor growth was measured by IVIS imaging to 25 and 190 days (FIG. 6D). Survival in this orthotopic implantation model is shown in (FIG. 6E). Using a GEMM (FIG. 6F), KPC/DKK3^+/+ (black line) or KPC/DKK3^−/− (blue line) mice were treated with αCTLA4 or control IgG and the Kaplan Meier survival curve is shown. *p<0.05, **p<0.01, ***p<0.001.
T cell division assay. Peripheral blood mononuclear cells (PBMC) were obtained from buffy coat by density centrifugation using Histopaque 1077 (Sigma) and CD3^+ T-cells were isolated using a pan T-cell isolation kit (Miltenyi Biotec). […] DKK3 or HPSC-CM was added and after 96 hours, cells were stained for CD3, CD4, and CD8 to define lineage and analyzed by flow cytometry. […]

Panc1 cells = test: Panc1 cell migration and invasion after rhDKK3; type: cell-based, human; details: Panc1, 10 μg/mL, 24 hours
Method: FIGS. 2A-J. DKK3 stimulates HPSC and PDAC activity and increases chemoresistance. (FIG. 2A) HPSC proliferation was measured by MTT after treatment with PBS or rhDKK3 (10 μg/ml). DKK3 was silenced in HPSCs by shDKK3 (FIG. 2B) and cell proliferation was measured by MTT assay (FIG. 2B) and migration was determined at 24 hours (FIG. 2C). Control cells were transfected with scrambled shRNA. (FIG. 2D) Panc1 cells were treated with rhDKK3 (10 μg/ml) or serum-free media control, and cell migration and invasion were measured after 24 hours. (FIGS. 2E-F) Panc1 cells were stably silenced for DKK3 and cell proliferation (FIG. 2E) and colony formation in soft agar (FIG. 2F) were measured. (FIG. 2G) BxPC3 cell migration was measured after treatment with CM from HPSCs or HPSCs silenced for DKK3. Soft agar colony formation (FIG. 2H) in gemcitabine and apoptosis (FIG. 2I) was determined in chemosensitive L3.6p1 cells expressing DKK3 compared with transfection controls. (FIG. 2J) Gemcitabine-induced apoptosis was measured in chemoresistant HS766T cells silenced for DKK3. *p<0.01, **p<0.001, ***p<0.0001, ****p<0.00001.
(§1) Cell-based assays. Cell proliferation was measured by the MTS assay (Promega, Madison, Wis.). […]

recombinant mouse DKK3 = molecular target: T1, recombinant mouse DKK3 (mouse, UniProt Q9QUN9 23-349, limits assumed); test: non-denaturing Western blot of recombinant protein
T1 construct: also called murine DKK3

recombinant human DKK3 = molecular target: T2, recombinant human DKK3 (human, UniProt Q9UBP4 22-350); test: non-denaturing Western blot of recombinant protein
T2 construct: Bought recombinant protein (R&D); also called rhDKK3; recombinant human DKK-3/His

BxPC3 cells [1] = test: BxPC3 resistance to gemcitabine, MTS proliferation assay; type: cell-based, human; details: BxPC3, gemcitabine 100 μM, HPSC-CM 10 μg/ml, 6 days
Method: (§2) HPSCs and BxPC3 cells were treated with DKK3 mAb clones JM6-6-1 and JM8-12-1 or isotype control mAb or PBS. (FIGS. 5A-B) HPSC apoptosis and migration as measured by FACS and Transwell migration assay at 48 hours. (FIG. 5C) BxPC3 migration in response to rhDKK3 10 μg/ml as measured by Transwell migration assay at 48 hours. (FIG. 5D) BxPC3 resistance to gemcitabine 100 μM as measured by MTS proliferation assay at 6 days. HPSC-CM, pancreatic stellate cell conditioned media, 10 μg/ml. The orthotopic co-injection BxPC3+ HPSC model of PDAC was used to test the efficacy of DKK3 mAb clones JM6-6-1 or JM8-12-1 (5 mg/kg i.p. once every 5 days). (FIG. 5E) Overall tumor progression was measured every 3-4 days by IVIS imaging. (FIG. 5F) Metastatic tumors in the peritoneal cavity after removal of the primary pancreatic tumor are shown by IVIS imaging. (FIG. 5G) Kaplan Meier survival curve showing mice treated with DKK3 mAb clone JM8-12 (right-most line), control mAb (middle line), or PBS (left-most line). (FIG. 5H) KPC mice (P48-Cre; Kras LSL-G12D;Trp53fl/fl) with either wild type DKK3 (solid lines) or deficient in DKK3 (“DKK3-KO,” dashed lines) were treated with DKK3 mAb JM6-6-1 (5 mg/kg i.p. once every 5 days), PBS or control mAb. […]
as §1

[2] = tested on: BxPC3 + HPSC orthotopic tumors; test: Orthotopic co-injection BxPC3 + HPSC nude mouse model of PDAC; type: in vivo; details: 5 mg/kg i.p. once every 5 days
Method: HPSCs and BxPC3 cells were treated with DKK3 mAb clones JM6-6-1 and JM8-12-1 or isotype control mAb or PBS. (FIGS. 5A-B) HPSC apoptosis and migration as measured by FACS and Transwell migration assay at 48 hours. (FIG. 5C) BxPC3 migration in response to rhDKK3 10 μg/ml as measured by Transwell migration assay at 48 hours. (FIG. 5D) BxPC3 resistance to gemcitabine 100 μM as measured by MTS proliferation assay at 6 days. HPSC-CM, pancreatic stellate cell conditioned media, 10 μg/ml. The orthotopic co-injection BxPC3+ HPSC model of PDAC was used to test the efficacy of DKK3 mAb clones JM6-6-1 or JM8-12-1 (5 mg/kg i.p. once every 5 days). (FIG. 5E) Overall tumor progression was measured every 3-4 days by IVIS imaging. (FIG. 5F) Metastatic tumors in the peritoneal cavity after removal of the primary pancreatic tumor are shown by IVIS imaging. (FIG. 5G) Kaplan Meier survival curve showing mice treated with DKK3 mAb clone JM8-12 (right-most line), control mAb (middle line), or PBS (left-most line). (FIG. 5H) KPC mice (P48-Cre; Kras LSL-G12D;Trp53fl/fl) with either wild type DKK3 (solid lines) or deficient in DKK3 (“DKK3-KO,” dashed lines) were treated with DKK3 mAb JM6-6-1 (5 mg/kg i.p. once every 5 days), PBS or control mAb. Kaplan Meier survival curve is shown with hazard ratios (Log-rank test). *p<0.05, **p<0.01, ***p<0.001, ****p<0.0001 vs. control Ab.
An orthotopic nude mouse model of PDAC using BxPC3 cancer cells labeled with firefly luciferase (BxPC3-FL) co-injected with HPSCs has been previously described (Hwang et al., 2008). Mice received intrapancreatic injections of BxPC3-FL (1×10^6 per mouse) with HPSC-shControl or HPSC-shDKK3 in a tumor-to-stroma ratio of 1:0 or 1:3 in 50-μL of HBSS and tumor growth was monitored using IVIS imaging (Hwang et al., 2008). In addition, a syngeneic immunocompetent DKK3 null model was used, provided by Dr. C. Niehrs (Barrantes Idel et al., 2006), that was injected with murine PDAC cells (termed “KPC cells”) isolated from tumors arising in a GEMM of PDAC (Pdx1-Cre; Kras^LSL-G12D;Trp53^R172H/+) (Hingorani et al., 2005; Hingorani et al., 2003) and labeled with luciferase.
The efficacy of DKK3 mAb was tested in vivo using the previously described orthotopic co-implantation nude mouse model of PDAC with human PSCs mixed with luciferase-labeled BxPC3 cancer cells (1:3 tumor:PSC ratio). Mice were treated with either phosphate-buffered saline (PBS), isotype control mAb, or DKK3 mAb (clone JM6-6-1; 5 mg/kg i.p. once every 5 days) and tumor growth was followed with IVIS imaging. […] Tumors in the PBS and control mAb groups grew rapidly from day 22 onward, with an 8-fold increase in the luciferase signal.

BxPC3 cells [3] = test: BxPC3 Transwell migration in response to rhDKK3; type: cell-based, human; details: BxPC3, rhDKK3 10 μg/ml, 48 hours
Method: as §2, §1

T2 sequence (Q9UBP4 22-350 limits assumed): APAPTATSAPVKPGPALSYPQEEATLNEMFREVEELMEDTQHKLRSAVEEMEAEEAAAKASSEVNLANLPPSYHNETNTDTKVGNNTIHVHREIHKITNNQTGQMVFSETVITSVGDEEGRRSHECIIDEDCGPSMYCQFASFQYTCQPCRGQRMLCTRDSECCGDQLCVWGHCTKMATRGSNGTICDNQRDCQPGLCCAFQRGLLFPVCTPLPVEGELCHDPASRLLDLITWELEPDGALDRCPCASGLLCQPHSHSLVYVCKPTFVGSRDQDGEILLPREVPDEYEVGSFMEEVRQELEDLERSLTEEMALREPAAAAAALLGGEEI
T1 sequence (Q9QUN9 23-349 limits assumed): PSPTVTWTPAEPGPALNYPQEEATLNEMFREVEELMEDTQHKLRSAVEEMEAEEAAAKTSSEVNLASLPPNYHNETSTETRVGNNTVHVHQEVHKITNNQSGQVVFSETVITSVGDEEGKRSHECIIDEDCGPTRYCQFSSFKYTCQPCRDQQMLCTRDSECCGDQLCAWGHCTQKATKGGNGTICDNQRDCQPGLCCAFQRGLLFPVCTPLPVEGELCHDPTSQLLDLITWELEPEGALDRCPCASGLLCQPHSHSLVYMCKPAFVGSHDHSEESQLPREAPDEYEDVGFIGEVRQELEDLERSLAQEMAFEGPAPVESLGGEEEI

## rhDKK3: recombinant human DKK3 (R&D)
NF-κB
  induction of NF-κB promoter activity relative to PBS control: 33%
CD3+ T cells
  inhibition of cell proliferation compared to media alone: 4.7-11.5 fold
Panc1 cells
  increase in invasion vs PBS controls: > 3 fold
  increase in migration vs PBS controls: ~100%

B1: DKK3 mAb clone JM6-6-1 (antibody, V domains shown)
VH: EVKLVESGGGLVKPGGSLKLSCAASGFTFTIEYMAWIRQTPEKRLEWVASISSGGDDIYYADNVKGRFTISRDNAKNTLYLQMSSLKSEDTAIYYCSRSLSDWGQGTTLTVSS
VL: MTQTPLSLPVSLGDQASISCRSSQSILHSNGHTYLEWYLQKPGQSPKLLIYKVSNRFSGVPDRFSGSGSGTDFTLKISRVEAEDLGVYYCFQGSHVPFTFGSGTKLEIER
notes: Mouse hybridoma mAb from A/J mice immunized with recombinant human DKK-3/His; the negative control is an IgG1 isotype control; also called anti-DKK3 mAb JM6-6-1; DKK3 antibody JM6-6-1
Recombinant mouse DKK3
  binding result: binds
Recombinant human DKK3
  binding result: binds

B2: JM8-12-1: monoclonal antibody against human DKK3; heavy chain variable SEQ ID NO: 17, light chain variable SEQ ID NO: 18 (tabled as JM8-12-2) (antibody, V domains shown)
VH: MKPSQSLSLTCTVTGYSITSDYAWNWIRQFPGNKLEWMGYISYRGSTRYNPSLKSRISITRDTSKNQLYLQLHSVTTEDTATYYCVHDGYYWVQQTLVTVSAAKTTPPSDY
VL: QDPRVDIVLTQSPASLAVSLFQRATISYRASKSVSTSGYSYMHWNQQKPGQPPRLLIYLVSNLESGVPARFSGSGSGTDFTLNIHPVEEEDAATYYCQHIRELTRSEGGPSWK
BxPC3 cells [1]
  effect on DKK3-mediated chemoresistance to gemcitabine: abrogated the DKK3-mediated induction of chemoresistance to gemcitabine
[2]
  hazard ratio compared with PBS control group: 0.26
  median survival: 50 days
BxPC3 cells [3]
  effect on DKK3-mediated induction of migration: reverse the DKK3-mediated induction of migration
